In general, stoichiometry N refers to a count of units in the complex or per binding partner.

The series deals with the molecule itself. Nature of the series: SEC; gel filtration on Superdex-200, 20 mM Tris-HCl pH 7.4, 50 mM NaCl, 5% glycerol; calibrated with ferritin, BSA and ovalbumin. (In general: In gel filtration, larger molecules generally elute earlier.)

B1: MyRF DBD core (proteolytically resistant, after limited proteolysis with trypsin) (domain or fragment, mouse)
chain: IKWQPHQQNKWATLYDANYKELPMLTYRVDADKGFNFSVGDDAFVCQKKNHFQVTVYIGMLGEPKYVKTPEGLKPLDCFYLKLHGVKLEALNQSINIEQSQSDRSKRPFNPVTVNLPPEQVTKVTVGRLHFSETTANNMRKKGKPNPDQRYFMLVVALQAHAQNQNYTLAAQISERIIVRAS
modifications: selenomethionyl substituted in the crystals (4 Se per molecule)
notes: Myelin-gene Regulatory Factor (MyRF), mouse, NP_001028653.1; trypsin-resistant core of about 24 kD, 210 residues, made from the expressed fragment 351-717; PDB 5H5P holds the crystallised chain; also called MyRF DBD core only; MyRF DBD (crystal structure); source: E. coli BL21 (DE3), nickel-sepharose, limited proteolysis with trypsin, purified (Superdex-75)
B1: the “stoichiometry N” value came out at 3.

B2: MyRF DBD after auto-cleavage (351–586 plus N-terminal his tag and linker) (domain or fragment, mouse, UniProt Q3UR85-3 351-586, looked up)
chain: IKWQPHQQNKWATLYDANYKELPMLTYRVDADKGFNFSVGDDAFVCQKKNHFQVTVYIGMLGEPKYVKTPEGLKPLDCFYLKLHGVKLEALNQSINIEQSQSDRSKRPFNPVTVNLPPEQVTKVTVGRLHFSETTANNMRKKGKPNPDQRYFMLVVALQAHAQNQNYTLAAQISERIIVRASNPGQFESDSDVLWQRAQLPDTVFHHGRVGINTDRPDEALVVHGNVKVMGSLMHP
notes: Myelin-gene Regulatory Factor (MyRF), mouse, NP_001028653.1; N-terminal product (351-586) of auto-cleavage of the expressed fragment 351-717 (DBD and ICA); also called wild type MyRF DBD; source: E. coli BL21 (DE3), expressed as fragment 351-717, auto-cleaved, purified (nickel-sepharose); not shown: His6, N-terminal, kept
As for B2, the “stoichiometry N” value came out at 3.

Values taken from paper PMC5473870, “Crystal structure of the DNA-binding domain of Myelin-gene Regulatory Factor” (Scientific Reports, 2017).
